The data set concerns the target T1, KwaB (O55) (Escherichia coli O55, UniProt P0DW46 1-315).
T1 sequence: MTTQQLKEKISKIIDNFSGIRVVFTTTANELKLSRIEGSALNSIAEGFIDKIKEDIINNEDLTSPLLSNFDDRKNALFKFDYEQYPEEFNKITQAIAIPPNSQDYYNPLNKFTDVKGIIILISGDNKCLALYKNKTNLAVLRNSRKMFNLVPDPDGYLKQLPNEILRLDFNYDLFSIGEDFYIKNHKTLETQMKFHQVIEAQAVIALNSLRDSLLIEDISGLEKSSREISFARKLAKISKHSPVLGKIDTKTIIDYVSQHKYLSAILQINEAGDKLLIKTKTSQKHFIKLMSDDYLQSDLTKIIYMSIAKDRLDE
Put plainly: EMSA. A general note: Mobility shift assays separate free from complexed probe on a gel.

B1: 72-bp dsDNA (dsDNA)
DNA 1: TGGTTTTTATATGTTTTGTTATGTATTGTTTATTTTCCCTTTAATTTTAGGATATGAAAACAAGAATTTATC
DNA 2: GATAAATTCTTGTTTTCATATCCTAAAATTAAAGGGAAAATAAACAATACATAACAAAACATATAAAAACCA
For the molecule B1, the binding result is “binds”.

Values taken from article PMC12348683.
